Measurements as given in the RNAGym collection of RNA variant scans (doi:10.7554/elife.80360).

B1: Twister Ribozyme (parent)
chain: AACACUGCCAAUGCCGGUCCCAAGCCCGGAUAAAAGUGGAGGGGGCGG

Variants of: B1
Assay: self-cleavage, relative activity (ratio to wild type); higher = more cleavage; co-transcriptional
For AACACUGCCAAUUUCGGUCCCAAGCCCGGAUAAAAGUGGAGGGGGCGG [G13U C14U], the self-cleavage was 0.635.
AACACUGCCAAUUCCGGUCCCAAGCCCCGAUAAAAGUGGAGGGGGCGG [G13U G28C] showed a self-cleavage of 0.405.
AACACUGCCAAUUCCGGUCUCAAGCCCGGAUAAAAGUGGAGGGGGCGG [G13U C20U] showed a self-cleavage of 0.134.
For AACACUGCCAAUGACGGUCCCAAGCCAGGAUAAAAGUGGAGGGGGCGG [C14A C27A], the self-cleavage was 0.31.
Work on AACACUGCCAAUGACGGUCCCAAGCCGGGAUAAAAGUGGAGGGGGCGG [C14A C27G] yielded a self-cleavage of 0.0739.
AACACUGCCAAUUCCGGUCCCAAGCCGGGAUAAAAGUGGAGGGGGCGG [G13U C27G] gave a self-cleavage of 0.0965.
Variant AACACUGCCAAUUCCGGUCCCAAGCCUGGAUAAAAGUGGAGGGGGCGG [G13U C27U] has a self-cleavage of 0.212.
AACACUGCCAAUUCCGGUCCCAAGCCAGGAUAAAAGUGGAGGGGGCGG [G13U C27A] showed a self-cleavage of 0.0958.
AACACUGCCAAUUCCGGUCCCAAACCCGGAUAAAAGUGGAGGGGGCGG [G13U G24A] gave a self-cleavage of 0.0906.
AACACUGCCAAUUCCGGUCCCAAUCCCGGAUAAAAGUGGAGGGGGCGG [G13U G24U] showed a self-cleavage of 0.0911.
In the case of AACACUGCCAAUGACGGUCCCAAGCCCGGAUAGAAGUGGAGGGGGCGG [C14A A33G], the self-cleavage is reported as 0.84.
Variant AACACUGCCAAUGACGGUCCCAAGCCCGGAUACAAGUGGAGGGGGCGG [C14A A33C] has a self-cleavage of 0.884.
Work on AACACUGCCAAUGACGGUCCCAAGCCCGGAUAAAAGUGAAGGGGGCGG [C14A G39A] yielded a self-cleavage of 0.409.
AACACUGCCAAUGACGGUCCCAAGCCCGGCUAAAAGUGGAGGGGGCGG [C14A A30C] gave a self-cleavage of 0.819.
Work on AACACUGCCAAUGACGGUCCCAAGCCCGGGUAAAAGUGGAGGGGGCGG [C14A A30G] yielded a self-cleavage of 0.803.
AACACUGCCAAUUCCGGUCCCAAGCCCGGAUAAGAGUGGAGGGGGCGG [G13U A34G] gave a self-cleavage of 0.211.
Variant AACACUGCCAAUGACGGUGCCAAGCCCGGAUAAAAGUGGAGGGGGCGG [C14A C19G] has a self-cleavage of 0.359.
For AACACUGCCAAUGACGGUUCCAAGCCCGGAUAAAAGUGGAGGGGGCGG [C14A C19U], the self-cleavage was 1.07.
AACACUGCCAAUGACGGUACCAAGCCCGGAUAAAAGUGGAGGGGGCGG [C14A C19A] showed a self-cleavage of 0.366.
Variant AACACUGCCAAUGACGGUCCCAAGCCCGGAUAAAAGUUGAGGGGGCGG [C14A G38U] has a self-cleavage of 0.676.
Variant AACACUGCCAAUUCCGGUCCCAAGUCCGGAUAAAAGUGGAGGGGGCGG [G13U C25U] has a self-cleavage of 0.129.
AACACUGCCAAUUCCGGUCCCAAGACCGGAUAAAAGUGGAGGGGGCGG [G13U C25A] gave a self-cleavage of 0.0642.
AACACUGCCAAUUCCGGUCCCAAGCCCGGUUAAAAGUGGAGGGGGCGG [G13U A30U] showed a self-cleavage of 0.749.
Work on AACACUGCCAAUGACGGUCCCAAGCACGGAUAAAAGUGGAGGGGGCGG [C14A C26A] yielded a self-cleavage of 0.38.
Work on AACACUGCCAAUGACGGUCCCAAGCUCGGAUAAAAGUGGAGGGGGCGG [C14A C26U] yielded a self-cleavage of 0.247.
In the case of AACACUGCCAAUUCCGGUGCCAAGCCCGGAUAAAAGUGGAGGGGGCGG [G13U C19G], the self-cleavage is reported as 0.0472.
AACACUGCCAAUUCCGCUCCCAAGCCCGGAUAAAAGUGGAGGGGGCGG [G13U G17C] gave a self-cleavage of 0.0903.
AACACUGCCAAUGGCGGUCCCAAGCCCGGGUAAAAGUGGAGGGGGCGG [C14G A30G] showed a self-cleavage of 0.122.
For AACACUGCCAAUGGCGGUCCCAAGCCCGGCUAAAAGUGGAGGGGGCGG [C14G A30C], the self-cleavage was 0.16.
Variant AACACUGCCAAUUCCGGUCCCAAGCCCGGAUAAAGGUGGAGGGGGCGG [G13U A35G] has a self-cleavage of 0.127.
Work on AACACUGCCAAUUCCGGUCCCAAGCCCGUAUAAAAGUGGAGGGGGCGG [G13U G29U] yielded a self-cleavage of 0.588.
Work on AACACUGCCAAUUCCGGUCCCAAGCCCGCAUAAAAGUGGAGGGGGCGG [G13U G29C] yielded a self-cleavage of 0.555.
With AACACUGCCAAUGACGGUCCCAAGCCCGGAUAAAAGUGGAGGGGGCUG [C14A G47U] the self-cleavage was 0.66.
AACACUGCCAAUGACGGUCCCAAGCCCGGAUAAAAGUGGAGGGGGCAG [C14A G47A] gave a self-cleavage of 0.749.
AACACUGCCAAUUCCGGUCCCAAGCCCGGAUAAAAUUGGAGGGGGCGG [G13U G36U] showed a self-cleavage of 0.107.
For AACACUGCCAAUUCCUGUCCCAAGCCCGGAUAAAAGUGGAGGGGGCGG [G13U G16U], the self-cleavage was 0.253.
In the case of AACACUGCCAAUUCCCGUCCCAAGCCCGGAUAAAAGUGGAGGGGGCGG [G13U G16C], the self-cleavage is reported as 0.094.
AACACUGCCAAUGACGGUCCCAAGCCCGGAUAAAAGUGGAGAGGGCGG [C14A G42A] showed a self-cleavage of 0.417.
AACACUGCCAAUGACGGUCCCAAGCCCGGAUAAAAGUGGAGUGGGCGG [C14A G42U] showed a self-cleavage of 0.368.
In the case of AACACUGCCAAUGACGGUCCCAAGCCCGGAUAAAAGUGGAGCGGGCGG [C14A G42C], the self-cleavage is reported as 0.363.
Work on AACACUGCCAAUGACGGUCCCAAGCCCGGAUAAAAGAGGAGGGGGCGG [C14A U37A] yielded a self-cleavage of 0.711.
In the case of AACACUGCCAAUUCCGGUCCCUAGCCCGGAUAAAAGUGGAGGGGGCGG [G13U A22U], the self-cleavage is reported as 0.174.
In the case of AACACUGCCAAUUCCGGUCCCGAGCCCGGAUAAAAGUGGAGGGGGCGG [G13U A22G], the self-cleavage is reported as 0.098.
With AACACUGCCAAUUCCGGUCCCAAGCCCGGAUGAAAGUGGAGGGGGCGG [G13U A32G] the self-cleavage was 0.354.
AACACUGCCAAUUCCGGUCCCAAGCCCGGAUUAAAGUGGAGGGGGCGG [G13U A32U] showed a self-cleavage of 0.489.
AACACUGCCAAUGGCGGUCCCCAGCCCGGAUAAAAGUGGAGGGGGCGG [C14G A22C] showed a self-cleavage of 0.372.
Work on AACACUGCCAAUGGCGGUCCCUAGCCCGGAUAAAAGUGGAGGGGGCGG [C14G A22U] yielded a self-cleavage of 0.128.
AACACUGCCAAUGACGGUCCCAAGCCCGGAUAAAGGUGGAGGGGGCGG [C14A A35G] gave a self-cleavage of 0.718.
With AACACUGCCAAUGACGGUCCCAAGCCCGGAUAAAAGUGGACGGGGCGG [C14A G41C] the self-cleavage was 0.294.
Variant AACACUGCCAAUGACGGUCCCAAGCCCGGAAAAAAGUGGAGGGGGCGG [C14A U31A] has a self-cleavage of 0.796.
For AACACUGCCAAUGACGGUCCCAAGCCCGGAUAAUAGUGGAGGGGGCGG [C14A A34U], the self-cleavage was 0.866.
AACACUGCCAAUGACGCUCCCAAGCCCGGAUAAAAGUGGAGGGGGCGG [C14A G17C] showed a self-cleavage of 0.12.
Work on AACACUGCCAAUGACGAUCCCAAGCCCGGAUAAAAGUGGAGGGGGCGG [C14A G17A] yielded a self-cleavage of 0.457.
For AACACUGCCAAUGACGGUCCCAAGCCCGGAUCAAAGUGGAGGGGGCGG [C14A A32C], the self-cleavage was 0.914.
